Assay results from patent publication US20140162285A1, “Methods of Modulating Vesicular Trafficking” (The General Hospital Corporation, priority 2009, published 2014).
Entries after “also recorded” stand apart in the source; their conditions may differ. One block for each molecule: values may come before it.

How the values were obtained:
[1] = molecular target: T1, 6His-a2N(wt) (Mus musculus, UniProt P15920); assay: ARNO-derived peptide pull-down with in vitro translated 6His-a2N(wt); type: binding; details: 7 nmol biotin-tagged peptide on streptavidin-agarose beads
T1 construct: amino acid residues 1-402 of mouse V-ATPase a2-subunit (a2N1-402); made in house; host or cells: cell-free in vitro translation
T1 sequence (P15920 1-402): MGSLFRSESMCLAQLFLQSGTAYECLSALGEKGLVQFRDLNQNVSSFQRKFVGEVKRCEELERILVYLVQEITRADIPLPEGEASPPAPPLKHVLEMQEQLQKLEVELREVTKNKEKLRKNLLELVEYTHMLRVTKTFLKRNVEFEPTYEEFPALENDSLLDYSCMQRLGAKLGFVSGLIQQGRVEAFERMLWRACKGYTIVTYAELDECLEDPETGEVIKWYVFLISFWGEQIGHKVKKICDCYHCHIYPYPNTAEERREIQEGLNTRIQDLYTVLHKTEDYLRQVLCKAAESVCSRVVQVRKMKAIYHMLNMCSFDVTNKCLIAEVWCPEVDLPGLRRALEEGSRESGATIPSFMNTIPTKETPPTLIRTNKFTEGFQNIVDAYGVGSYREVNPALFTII
Method: FIGS. 4B-C are images of Western blots showing (4B) the results of peptide pull-down assays for interaction of a2N with Sec7-PH-linker of ARNO and (4C) phosphorylation-dependent interaction of a2N with ARNO-derived peptide corresponding to the PB-domain of ARNO. Corresponding ARNO-derived peptides were immobilized on streptavidin-beads and incubated with in vitro translated recombinant a2N. Interacting complexes were eluted and analyzed by Western blotting using anti-a2N antibodies.
ARNO-derived peptides, equal amounts (7 nmol) of biotin-tagged synthetic peptides were also immobilized on streptavidin-agarose beads followed by incubation with 10 μl of in vitro translated 6His-a2N(wt) recombinant protein. Pull-down experiments and SDS-PAGE analysis were performed as described above and interacting 6His-a2N/ARNO-derived-peptide complexes were analyzed by Western blotting using polyclonal anti-a2N antibody. All experiments were repeated at least three times with similar results.

[2] = molecular target: T2, GST-ARNO(wt) (Homo sapiens, UniProt Q99418); assay: recombinant protein pull-down of in vitro translated a2N-N / a2N-C with GST-ARNO(wt); type: binding; details: 35S-labeled in vitro translated protein, autoradiography
T2 construct: i) 1-400aa, full length ARNO(wt); made in house; host or cells: E. coli BL21(DE3)
T2 sequence (Q99418 1-400): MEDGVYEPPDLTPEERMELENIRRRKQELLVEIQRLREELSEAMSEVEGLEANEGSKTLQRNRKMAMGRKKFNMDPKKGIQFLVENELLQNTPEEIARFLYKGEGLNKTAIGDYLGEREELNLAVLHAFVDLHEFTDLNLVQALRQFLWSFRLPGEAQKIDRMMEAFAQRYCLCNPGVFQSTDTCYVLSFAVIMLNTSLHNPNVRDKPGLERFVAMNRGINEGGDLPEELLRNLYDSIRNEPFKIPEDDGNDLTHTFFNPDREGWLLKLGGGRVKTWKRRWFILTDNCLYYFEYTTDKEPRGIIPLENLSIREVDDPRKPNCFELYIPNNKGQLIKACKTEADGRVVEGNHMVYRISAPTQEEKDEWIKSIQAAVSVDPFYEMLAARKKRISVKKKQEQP
Source text: FIG. 2C is an image of a Western blot showing that both the amino terminus (a2N-N) and carboxyl terminus (a2N-C) of the cytosolic tail of the a2-subunit interact with ARNO(wt). Left panel, a pull-down (PD) of in vitro translated metabolically labeled a2N-N (a2N1-133) with recombinant GST-only and GST-ARNO(wt) used as a baits. […] Right panel, a pull-down (PD) of in vitro translated metabolically labeled a2N-C (a2N134-393) with recombinant GST-only and GST-ARNO(wt) used as a baits.
The purified recombinant GST-ARNO(wt) and GST-tagged ARNO domain constructs ([…]) were incubated with 10 μl of in vitro translated 6His-a2N recombinant protein at 4° C. for 2 hours in 500 μl of binding buffer (10 mM HEPES, 1 mM EDTA, 1 mM DTT, 100 mM NaCl, 10% glycerol, 0.1% NP-40) with gentle rotation. Then the interacting recombinant proteins were immobilized on glutathione beads by incubation with 50 μl of 50% glutathione Sepharose 4B slurry for 2 hours at 4° C. The beads were collected by centrifugation and washed 5 times with 500 μl ice-cold binding buffer. Interacting proteins were eluted by boiling in SDS-PAGE sample buffer for 10 min at 95° C., resolved by SDS-PAGE and analyzed by Western blotting using polyclonal anti-a2N antibodies. […]

interaction of ARNO-derived peptide with a2N [1]: reproducibly observed
Molecule: Sec7/PH-linker: peptide corresponding to the Sec7/PH-linker region (242-261aa) of ARNO, SEQ ID NO:31 (PFKIPEDDGNDLTHTFFNPD)

B1: a2N-N: N-terminal part of a2N, amino acid residues 1-133 of the mouse V-ATPase a2-subunit, in vitro translated (protein)
chain: MSGSHHHHHHSSGIEGRGRLIKMTMGSLFRSESMCLAQLFLQSGTAYECLSALGEKGLVQFRDLNQNVSSFQRKFVGEVKRCEELERILVYLVQEITRADIPLPEGEASPPAPPLKHVLEMQEQLQKLEVELREVTKNKEKLRKNLLELVEYTHMLR
interaction with GST-ARNO(wt) in pull-down [2]: could interact; also recorded: direct interaction

B2: a2N-C: C-terminal part of a2N, amino acid residues 134-393 of the mouse V-ATPase a2-subunit, in vitro translated (protein)
chain: MSGSHHHHHHSSGIEGRGRLIKMTVTKTFLKRNVEFEPTYEEFPALENDSLLDYSCMQRLGAKLGFVSGLIQQGRVEAFERMLWRACKGYTIVTYAELDECLEDPETGEVIKWYVFLISFWGEQIGHKVKKICDCYHCHIYPYPNTAEERREIQEGLNTRIQDLYTVLHKTEDYLRQVLCKAAESVCSRVVQVRKMKAIYHMLNMCSFDVTNKCLIAEVWCPEVDLPGLRRALEEGSRESGATIPSFMNTIPTKETPPTLIRTNKFTEGFQNIVDAYGVGSYRE
interaction with GST-ARNO(wt) in pull-down [2]: could interact; also recorded: direct interaction
